Data: patent US20180037644A1 (Pfizer, published 2018)
Like-named read-outs stand apart in the source and are kept apart here.

T1: human IL-33 (mm2) (human, UniProt O95760 112-270)
T1 chain: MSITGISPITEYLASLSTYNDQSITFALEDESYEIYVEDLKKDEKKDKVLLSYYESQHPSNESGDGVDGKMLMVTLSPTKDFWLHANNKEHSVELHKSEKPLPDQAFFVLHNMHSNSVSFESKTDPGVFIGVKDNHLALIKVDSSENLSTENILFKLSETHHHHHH

T2: human IL-33 WT (R&D) (human, UniProt O95760 112-270)
T2 sequence: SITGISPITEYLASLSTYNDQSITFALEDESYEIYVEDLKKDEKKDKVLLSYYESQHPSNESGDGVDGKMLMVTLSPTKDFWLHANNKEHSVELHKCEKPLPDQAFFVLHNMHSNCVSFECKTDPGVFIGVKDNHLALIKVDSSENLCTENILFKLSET


How the values were obtained:
Assay in all cases: cell-based or functional assay
human IL-33 (mm2) [1] = target: T1, human IL-33 (mm2)
human IL-33 (mm2) [2] = target: T1, human IL-33 (mm2)
human IL-33 WT (R&D) = target: T2, human IL-33 WT (R&D)

IC50, HEK293 ST2 NFkB (human IL-33 (mm2) [1])	IC50, HEK293 ST2 NFkB (human IL-33 (mm2) [2])	IC50, HEK293 ST2 NFkB (human IL-33 WT (R&D))	Binder
0.368 nM			30B11 CDR graft (antibody, human IgG1, kappa, V domains shown) VH: EVQLVESGGGLVQPGGSLRLSCAASGFTFTDYWVSWVRQAPGKGLEWVAEIYPNSGADNFNENFKGRFTISRDNAKNSLYLQMNSLRAEDTAVYYCARGPYYYSTQIIFAYWGQGTLVTVSS VL: DIQMTQSPSSLSASVGDRVTITCKASQNVGNNLAWYQQKPGKAPKLLIYYASNRYTGVPSRFSGSGSGTDFTLTISSLQPEDFATYYCQRIYNSPPTFGGGTKVEIKR
0.278 nM			30B11 CDR graft_R71V (antibody, human IgG1, kappa, V domains shown) VH: EVQLVESGGGLVQPGGSLRLSCAASGFTFTDYWVSWVRQAPGKGLEWVAEIYPNSGADNFNENFKGRFTISVDNAKNSLYLQMNSLRAEDTAVYYCARGPYYYSTQIIFAYWGQGTLVTVSS VL: DIQMTQSPSSLSASVGDRVTITCKASQNVGNNLAWYQQKPGKAPKLLIYYASNRYTGVPSRFSGSGSGTDFTLTISSLQPEDFATYYCQRIYNSPPTFGGGTKVEIKR
0.52 nM			9B3 CDR graft (antibody, human IgG1, kappa, V domains shown) VH: EVQLVESGGGLVQPGGSLRLSCAASGFTFSNYWMYWVRQAPGKGLEWVASINNDGGNTYYLDSVKGRFTISRDNAKNSLYLQMNSLRAEDTAVYYCARGHYSYSSYSFSYWGQGTLVTVSS VL: DIQMTQSPSSLSASVGDRVTITCKASHNINKHLDWYQQKPGKAPKLLIYFTNNLQTGVPSRFSGSGSGTDFTLTISSLQPEDFATYYCFQYNSGWTFGGGTKVEIKR
	0.129 nM	0.749 nM	IL33-167-153 (antibody, human IgG1, kappa) heavy: EVQLVESGGGLVQPGGSLRLSCAASGFTFSSYWMYWVRQAPGKGLEWVASITPNAGEDYYPDSVKGRFTISRDNAKNSLYLQMNSLRAEDTAVYYCARGHYYYTSYSLGYWGQGTLVTVSSASTKGPSVFPLAPSSKSTSGGTAALGCLVKDYFPEPVTVSWNSGALTSGVHTFPAVLQSSGLYSLSSVVTVPSSSLGTQTYICNVNHKPSNTKVDKKVEPKSCDKTHTCPPCPAPEAAGAPSVFLFPPKPKDTLMISRTPEVTCVVVDVSHEDPEVKFNWYVDGVEVHNAKTKPREEQYNSTYRVVSVLTVLHQDWLNGKEYKCKVSNKALPAPIEKTISKAKGQPREPQVYTLPPSREEMTKNQVSLTCLVKGFYPSDIAVEWESNGQPENNYKTTPPVLDSDGSFFLYSKLTVDKSRWQQGNVFSCSVMHEALHNHYTQKSLSLSPG light: DIQMTQSPSSLSASVGDRVTITCKASQNINKHLDWYQQKPGKAPKLLIYFTNNLQTGVPSRFSGSGSGTDFTLTISSLQPEDFATYYCFQYNNGWTFGGGTKVEIKRTVAAPSVFIFPPSDEQLKSGTASVVCLLNNFYPREAKVQWKVDNALQSGNSQESVTEQDSKDSTYSLSSTLTLSKADYEKHKVYACEVTHQGLSSPVTKSFNRGEC
